Laboratory results reported in the RNAGym collection of RNA variant scans (doi:10.7554/elife.90254).

B1: LINE1-full (parent)
chain: UACGUAGGUGGUUUUCCCCUGAUAGUGCUAAGGGGGCCUGGAAGUUUGGACUGGGCAGAGCUCAACACAGCGUGGCAAAGUGGCUGUGGCUAGACUGCCUCUCUGGAUUCCUCGUCACUCAGCAGGGCAUCUCUGAGAGAAAUGCC

Variants of: B1
Assay: self-cleavage, relative activity (ratio to wild type); higher = more cleavage; in vitro, sequencing; the parent is a self-cleaving ribozyme

In order of rising self-cleavage:
1. U1A U96G  0
2. C3G A57U  0
3. A2G U102G  0
4. C3U G58U  0
5. A2G G32A  0
6. C3U G7C  0
7. A2C G93A  0.03
8. U1C U85A  0.03
9. U1C G70A  0.04
10. A2U U85A  0.04
11. U1C A69U  0.04
12. A2U A67U  0.05
13. U1C U62A  0.05
14. A2C G89A  0.05
15. U1C G86A  0.06
16. U1C A65U  0.06
17. U1C C56U  0.07
18. C3U G60U  0.07
19. C3A G55C  0.07
20. U1C A69C  0.07
21. U1C A65G  0.07
22. U1C U85G  0.08
23. U1A C61U  0.08
24. C3A G70A  0.08
25. A2U G97A  0.08
26. U1C G93A  0.09
27. A2G U112A  0.09
28. U1C U87C  0.1
29. C3U A59G  0.1
30. C3A U87A  0.1
31. A2G G89A  0.11
32. U1A U85G  0.12
33. A2C A65G  0.12
34. A2U A67C  0.12
35. C3U A67C  0.12
36. U1C U62C  0.12
37. C3U A69U  0.13
38. C3U A67U  0.15
39. U1A U91C  0.15
40. A2U A57C  0.16
41. A2C U85G  0.16
42. C3U A65G  0.17
43. A2G A50U  0.18
44. A2G A67U  0.18
45. A2G A22U  0.19
46. A2G A65G  0.2
47. C3U A6U  0.2
48. A2G U96A  0.22
49. U1A C84U  0.22
50. A2U A65U  0.23
51. A2U A64G  0.23
52. C3G U132A  0.24
53. U1C A94G  0.24
54. A2G A141U  0.24
55. U1C C99U  0.24
56. U1C U102A  0.25
57. A2G A94G  0.25
58. U1G A42U  0.28
59. U1C C103U  0.29
60. A2G A94U  0.29
61. U1A A67C  0.3
62. A2G U46A  0.3
63. A2G A117G  0.3
64. A2U U96C  0.31
65. A2U A92U  0.32
66. A2G U39C  0.32
67. A2U C16U  0.32
68. A2G U87C  0.35
69. A2G U20A  0.37
70. C3U A78G  0.37
71. A2G U62G  0.37
72. A2G A57U  0.38
73. U1A G97A  0.38
74. A2G A50G  0.39
75. U1C U91C  0.39
76. A2G A64G  0.39
77. A2G G4U  0.4
78. U1C A67G  0.41
79. A2G A67G  0.41
80. A2G C71G  0.42
81. U1C U109C  0.42
82. U1C A69G  0.42
83. U1A G70C  0.43
84. A2U U47C  0.43
85. C3A U45G  0.45
86. A2G U91C  0.45
87. U1G A64G  0.46
88. U1A U134C  0.47
89. A2U A42U  0.47
90. A2G U85C  0.48
91. U1A U102A  0.48
92. U1G C37G  0.49
93. U1A U87C  0.5
94. A2G A140C  0.51
95. A2U U46A  0.51
96. A2U A107U  0.52
97. U1C U26A  0.53
98. A2U A50G  0.53
99. A2G G72U  0.53
100. C3A A121G  0.53
101. A2G A6U  0.53
102. C3U A94G  0.54
103. U1C A22U  0.54
104. U1C C38A  0.55
105. U1C A57G  0.56
106. C3A G106A  0.57
107. C3U A50U  0.58
108. A2G A64C  0.59
109. U1C U47A  0.6
110. A2U A57G  0.6
111. U1G A30G  0.61
112. U1C C113A  0.62
113. A2G U100C  0.62
114. A2G A129U  0.62
115. A2U C113A  0.63
116. C3A U73A  0.64
117. U1A A64G  0.64
118. A2U U12C  0.64
119. U1C A50G  0.64
120. C3A A78G  0.64
121. A2G U109A  0.65
122. C3U C111U  0.65
123. A2G C3U  0.65
124. A2G A65U  0.66
125. A2U U100A  0.66
126. U1C C19U  0.66
127. U1C G35A  0.67
128. A2G G36U  0.67
129. U1C U108C  0.67
130. U1A A43U  0.68
131. A2U C111A  0.68
132. C3A  0.69
133. A2G U23C  0.69
134. A2G G74A  0.69
135. A2G A138U  0.69
136. A2G G75A  0.7
137. C3A U104A  0.7
138. U1C A138G  0.7
139. U1C G7A  0.7
140. U1C C38U  0.71
141. U1C G25A  0.72
142. A2G C28U  0.72
143. A2U A129G  0.72
144. A2G U46C  0.72
145. U1C A2G  0.72
146. U1C A30G  0.73
147. U1C C37G  0.73
148. U1C G83A  0.74
149. A2G U20C  0.74
150. A2G U81A  0.74
151. A2G A124G  0.74
152. U1C A124G  0.75
153. A2G G34C  0.75
154. U1C A107G  0.75
155. A2C A50U  0.75
156. U1G G80A  0.75
157. U1C G34A  0.75
158. U1A A50G  0.75
159. C3U C16U  0.76
160. A2G A136U  0.77
161. A2G U112G  0.77
162. U1A U108C  0.77
163. U1C G4U  0.78
164. U1C U12C  0.78
165. C3A U13A  0.79
166. A2U G122A  0.79
167. U1C C128A  0.79
168. A2G A77U  0.79
169. U1C A121G  0.79
170. A2G A59U  0.8
171. U1C U14A  0.81
172. U1A U20A  0.81
173. C3A A142G  0.82
174. A2G G114A  0.82
175. C3U  0.83
176. A2U U14C  0.83
177. U1C U130A  0.83
178. A2G U9C  0.83
179. U1C A22G  0.84
180. U1C U12G  0.84
181. U1C U45A  0.84
182. A2G U26A  0.84
183. A2G U104C  0.84
184. U1C U81C  0.85
185. A2G G144A  0.86
186. U1C A79G  0.86
187. U1C  0.86
188. A2G A79G  0.87
189. A2G C37G  0.87
190. A2G G44U  0.87
191. U1G  0.87
192. A2G A30G  0.87
193. A2G A43G  0.87
194. U1C U52A  0.88
195. U1C U20A  0.88
196. A2G A124U  0.88
197. A2G U26C  0.88
198. A2G A64U  0.88
199. A2C U119C  0.89
200. A2G U15C  0.89
201. C3A A140U  0.9
202. U1C A24C  0.91
203. U1A A79U  0.91
204. C3G A30U  0.91
205. U1A U13C  0.91
206. A2U U52A  0.92
207. A2U G11A  0.92
208. U1C U15C  0.92
209. C3A U134C  0.92
210. U1C U14C  0.93
211. A2G A142G  0.93
212. A2G U108C  0.94
213. A2G A107G  0.94
214. A2U U100C  0.95
215. U1C G10A  0.95
216. U1C U39C  0.95
217. C3U A43G  0.95
218. A2G U73A  0.95
219. C3U A22G  0.95
220. A2G U12C  0.96
221. U1A U46G  0.96
222. U1C U47C  0.97
223. A2G A22G  0.97
224. U1A U12G  0.97
225. A2U U29C  0.98
226. A2G A138G  0.98
227. U1C A140G  0.99
228. U1C A142G  0.99
229. C3U A22U  0.99
230. A2G A31G  1
231. A2U A107G  1
232. A2G U15A  1
233. U1C U81G  1.01
234. A2U A138U  1.01
235. A2G U108A  1.02
236. U1A U47C  1.02
237. U1A U112C  1.03
238. A2G U132C  1.04
239. U1A U143A  1.04
240. A2G G106U  1.04
241. U1A A138G  1.05
242. U1C A121U  1.06
243. U1A G126C  1.06
244. A2U C76U  1.07
245. C3U A136G  1.08
246. A2G U115A  1.08
247. A2U U132C  1.09
248. A2G U29G  1.09
249. U1C U29C  1.1
250. A2G A142U  1.12
251. A2C U5C  1.12
252. A2G U29A  1.14
253. U1C A24G  1.15
254. U1C A136U  1.15
255. A2G G72A  1.15
256. A2U A142G  1.15
257. C3U C113A  1.15
258. A2C U14A  1.16
259. A2U G127C  1.16
260. C3U A107U  1.17
261. C3A A77G  1.17
262. U1A  1.17
263. U1C U143C  1.18
264. A2C U130C  1.19
265. A2G U45C  1.19
266. A2U U15C  1.19
267. U1C U115C  1.19
268. U1C U100C  1.2
269. U1A G25C  1.2
270. A2G G35A  1.2
271. A2U A30G  1.2
272. U1A U104A  1.2
273. A2G U134G  1.21
274. C3U A42G  1.22
275. A2G C19A  1.24
276. U1C G35C  1.26
277. U1C G36C  1.26
278. U1A A31G  1.26
279. U1A G40A  1.26
280. U1A U91A  1.27
281. A2U U143C  1.28
282. A2C A140G  1.28
283. U1A A24U  1.28
284. A2C U73A  1.29
285. U1C G82A  1.3
286. U1A A79G  1.31
287. C3A U52G  1.31
288. C3U C51G  1.31
289. U1C A77G  1.32
290. U1C A31C  1.33
291. C3G  1.34
292. A2G A24U  1.34
293. U1C G125A  1.34
294. A2C G4U  1.34
295. A2G U134C  1.35
296. U1A A42G  1.35
297. U1G U132C  1.36
298. A2U A79U  1.37
299. U1C A129G  1.38
300. A2U U112C  1.4
301. A2G U5C  1.41
302. C3U A121U  1.41
303. U1A A141U  1.42
304. A2G A121G  1.44
305. U1A G106A  1.44
306. U1A U130C  1.46
307. U1C U119A  1.47
308. C3A U112C  1.48
309. U1A A117U  1.48
310. C3A G122A  1.51
311. U1A G127C  1.51
312. U1A U104C  1.51
313. U1A U47G  1.53
314. U1G A138G  1.57
315. U1A U52C  1.64
316. A2C U102C  1.65
317. U1A A107G  1.67
318. U1A U73A  1.67
319. A2G U130A  1.72
320. A2U U109C  1.74
321. C3U A30G  1.75
322. U1A G11A  1.76
323. A2U A77G  1.77
324. A2C A142G  1.78
325. A2C U143A  1.85
326. U1A U26C  1.93
327. U1C U109A  2.04
328. U1A U23C  2.04
329. A2U U102C  2.12
330. U1C U112C  2.17
331. U1C G114C  2.19
332. U1A A129C  2.51
333. U1G U52C  2.63
334. C3U G41A  2.76
